# From the supplement of paper PMC7125110
# ± gives the standard error. Fewer inactive variants are shown than the library holds.
# B1: glmS ribozyme (parent)
# chain: AUAAAAGCGCCAGAACUACAGAAAUGUAGUUGACGAGGAGGAGGUUUAUCGAAUUUUCGGCGGAUGCCUCCAAA
# Variants of: B1
# Assay: self-cleavage kobs at 2500 uM GlcN6P; higher = faster cleavage; RNA array
# Settings: with glucosamine-6-phosphate
# In short: (§1)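 Glucosamine-6-phosphate (40 μM to 10 mM) in HEPES/KCl/Mg(OAc)2 buffer was flowed over sequenced MiSeq chips, and tiles were imaged over ~14 h. Barcoded ribozyme variants there had been transcribed in situ by E. coli RNA polymerase and were tracked through a hybridised Cy3 probe at 37 °C. One- or two-exponential decay fits to per-tile medians, normalised to baseline and to non-cleaving reference variants, gave kobs. kcat and KM came from weighted Michaelis–Menten fits across concentrations.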
row,Variant,self-cleavage kobs at 2500 uM GlcN6P
1,A52G C58G C61A A64U C67U,9.05e-05 ± 3.3e-05 s⁻¹
2,A14C U31C U65A C70A,7.72e-05 ± 2.5e-05 s⁻¹
3,C8G G59C A64G,< 1e-05 s⁻¹
4,C10A G13U A36U U55C C67U,< 1e-05 s⁻¹
5,G7A C34U A36C,< 1e-05 s⁻¹
6,C11A G37A G38C,< 1e-05 s⁻¹
7,G43C G51C G59U,< 1e-05 s⁻¹
8,A14C G40U U47C A53G C61A C70U,< 1e-05 s⁻¹
9,A12G G40A G60A U69G,< 1e-05 s⁻¹
10,G41U A52U U55A C70U,6.63e-05 ± 1.6e-05 s⁻¹
11,G21U U57C,9.36e-05 ± 1.4e-05 s⁻¹
12,C10U C16G C61U C71U,< 1e-05 s⁻¹
13,G7A G41C U45C U47C,< 1e-05 s⁻¹
14,G13A C34A A39G G59A G62C,< 1e-05 s⁻¹
15,G9C U45G C50U G59U,< 1e-05 s⁻¹
16,A15U A33U G59U,< 1e-05 s⁻¹
17,G60U C67A U69A,< 1e-05 s⁻¹
18,C8G A33G A42G U55G,< 1e-05 s⁻¹
19,A14U G43U C68G,0.0033 ± 0.00062 s⁻¹
20,C11G A33U U47G,< 1e-05 s⁻¹
21,A15C U47C U55C,0.000237 ± 7.7e-05 s⁻¹

row,Variant,self-cleavage kobs at 2500 uM GlcN6P
1,A18U,0.00664 ± 0.0014 s⁻¹
2,A6C A12G U55C C70A,< 1e-05 s⁻¹
3,C10A G40U U56A U65C,< 1e-05 s⁻¹
4,A6G G13U G40A C71U,< 1e-05 s⁻¹
5,U31G G32A A33C G41A A48G,< 1e-05 s⁻¹
6,A14G A52U A53G,0.000141 ± 3.3e-05 s⁻¹
7,C11G G51C A64C,< 1e-05 s⁻¹
8,G29C C34U G37U C70U,0.000116 ± 3.3e-05 s⁻¹
9,A36G U45G C67A,< 1e-05 s⁻¹
10,U30A G32C C34G U55A,< 1e-05 s⁻¹
11,G37C A52G U56G,< 1e-05 s⁻¹
12,A12C U30A C50U G51C,< 1e-05 s⁻¹
13,G40U U49A A64U C70U,< 1e-05 s⁻¹
14,U30G G40C U46G,4.32e-05 ± 1.4e-05 s⁻¹
15,C16A U46C U56C G63U C70U,< 1e-05 s⁻¹
16,A52C C58U G59U,< 1e-05 s⁻¹
17,G9U U54C G63C,< 1e-05 s⁻¹
18,A6U A14U G29A C34G G63A,< 1e-05 s⁻¹
19,A36G G44U A48G C67U C71A,< 1e-05 s⁻¹
20,G29A G32C C34A A48G U57A,< 1e-05 s⁻¹
21,C16A G41C C70U,5.88e-05 ± 1.8e-05 s⁻¹

row,Variant,self-cleavage kobs at 2500 uM GlcN6P
1,A15G G32A C58G,8.81e-05 ± 2.9e-05 s⁻¹
2,G7C U31C U46C G66U,< 1e-05 s⁻¹
3,C11U U31C C50A,< 1e-05 s⁻¹
4,G13U A53G C68U,0.000212 ± 3.7e-05 s⁻¹
5,U46G C61A,< 1e-05 s⁻¹
6,C10U A53G G66U C68G,4.34e-05 ± 1.4e-05 s⁻¹
7,C16G U55A C67U C71A,8.06e-05 ± 2.9e-05 s⁻¹
8,G7U A33U G35C G44C U45G G66U,< 1e-05 s⁻¹
9,G7C C11A C16U,< 1e-05 s⁻¹
10,A14C U31C U54C,0.0014 ± 0.00039 s⁻¹
11,G32U A48C G51C,< 1e-05 s⁻¹
12,C16U U46C U56C,0.000416 ± 7.9e-05 s⁻¹
13,C50A A53U C67U C68G,4.54e-05 ± 2.1e-05 s⁻¹
14,G41U G44U C67U U69G,< 1e-05 s⁻¹
15,A36C G44U C67U,< 1e-05 s⁻¹
16,G29A G41A A48C C71G,< 1e-05 s⁻¹
17,G32U A42C A53C U55A,< 1e-05 s⁻¹
18,G38A G43U A48G C58G,< 1e-05 s⁻¹
19,A14U U45C G60C G63C,< 1e-05 s⁻¹
20,A14G G29A C70G,0.000126 ± 4e-05 s⁻¹
21,G41A U45A C71U,9.76e-05 ± 2.1e-05 s⁻¹

row,Variant,self-cleavage kobs at 2500 uM GlcN6P
1,C16U G37A U46C U56G,0.000119 ± 2.7e-05 s⁻¹
2,A14G A42G A52U,9.16e-05 ± 3.3e-05 s⁻¹
3,C8U C11G G13C,< 1e-05 s⁻¹
4,A6C C11G U49G U65C C68G,< 1e-05 s⁻¹
5,G7A C10A A48G,< 1e-05 s⁻¹
6,A6G C50U A64C C71U,< 1e-05 s⁻¹
7,A14U G29C G44U,< 1e-05 s⁻¹
8,G7C G9C C61G G62U,< 1e-05 s⁻¹
9,C8A C50U A64U,< 1e-05 s⁻¹
10,A14G A48G C71U,0.000156 ± 5.8e-05 s⁻¹
11,C8G A64U C70U,< 1e-05 s⁻¹
12,C58A G59C C71U,< 1e-05 s⁻¹
13,C10U G32A C70U,6.3e-05 ± 3e-05 s⁻¹
14,C8A C58U A64U C67G,< 1e-05 s⁻¹
15,G7A G13A G40C U47G,< 1e-05 s⁻¹
16,C11G G60C G63C,< 1e-05 s⁻¹
17,U54A C61A A64U C68U,8.54e-05 ± 3.8e-05 s⁻¹
18,G9C C16G G29U,< 1e-05 s⁻¹
19,G13A A64C C71U,< 1e-05 s⁻¹

# Variants of: B1
# Assay: self-cleavage kobs at 10000 uM GlcN6P; higher = faster cleavage; RNA array
# Settings: with glucosamine-6-phosphate
# In short: as §1
row,Variant,self-cleavage kobs at 10000 uM GlcN6P
1,G41U A52U U55A C70U,9.97e-05 ± 2.6e-05 s⁻¹
2,G29C C34U G37U C70U,3.91e-05 ± 1.8e-05 s⁻¹
3,U46G C61A,< 1e-05 s⁻¹
4,C16G U55A C67U C71A,3.71e-05 ± 1.3e-05 s⁻¹
5,C11G G60C G63C,< 1e-05 s⁻¹
